For 32 variants, self-cleavage results are on record in the RNAGym collection of RNA variant scans (doi:10.7554/elife.80360).

B1: HDV Ribozyme (parent)
chain: GGCCGGCAUGGUCCCAGCCUCCUCGCUGGCGCCGGCUGGGCAACAUUCCGAGGGGACCGUCCCCUCGGUAAUGGCGAAUGGGACCCA

In the data set the parent is B1. The data set can be described thus: self-cleavage, relative activity (ratio to wild type); higher = more cleavage; co-transcriptional.
For GGCCGGCAUGGUCCCCGCCUCCUCGCUGGCGCCGGCUGCGCAACAUUCCGAGGGGACCGUCCCCUCGGUAAUGGCGAAUGGGACCCA [A16C G39C], the self-cleavage worked out at 0.0831.

As for CGCCGGCAUGGUCCCAGCCUCCUCGCUGGCGCCGGCUGGGCAACAUUCCGAGUGGACCGUCCCCUCGGUAAUGGCGAAUGGGACCCA [G1C G53U], the self-cleavage was determined as 0.213. As for GGCCGGCAUGGUCCCAGCCUCCUCGCUGGCGCCGGCUGGGCAACAAUCCGAGGGGACCGUCCCCUCGGUAAUGGCGAAGGGGACCCA [U46A U79G], the self-cleavage stood at 0.322. Regarding GGCGGGCAUGAUCCCAGCCUCCUCGCUGGCGCCGGCUGGGCAACAUUCCGAGGGGACCGUCCCCUCGGUAAUGGCGAAUGGGACCCA [C4G G11A], the self-cleavage stood at 0.104. As to GGCCGGCAUGGUCCCAGCCUCCUCGCUGGCGCCGGCUGGGCAACAUUCCGAGGGGACCGUCCCCUCGGUUAUGCCGAAUGGGACCCA [A70U G74C], the self-cleavage turned out to be 0.237. For GGCCGGCAUGGUCCCAGCCUCCUCGCUGGCGCCUGCUGGGCAACAUUCCGAGGGGACCGUCCUCUCGGUAAUGGCGAAUGGGACCCA [G34U C63U], the self-cleavage was determined as 0.166. Next, GGCCGGCAUGGUCCCAGCCUCCUCACUGGCGCCGGCUGGGCAACAUUCAGAGGGGACCGUCCCCUCGGUAAUGGCGAAUGGGACCCA [G25A C49A]: 0.101. On to GGCCGGCAUGGUCCCAGCCUCCUCGCUGGCGCCGGCUGGGCCACAUUCCGAGGGGACCGUCCCCUCGGUAAUGGCGAAUGGAACCCA [A42C G82A], for which the self-cleavage stood at 0.107. In the case of GGCCGGCAUGGUCCCAGCCUCCUCGCUGGCGCCGGCUGGGCAACAUUCCGAGGGGACCGUUCCCUCGGUAAUGGGGAAUGGGACCCA [C61U C75G], the self-cleavage is 0.151. For the variant GGCCGGCAUGGUCCCAGCCUCCUCGCUGGCGCCGGCUGGGCAACAUUCCGAGGGGACCGUCCUCUCGGUAAUGGCGAAUGGGACCCC [C63U A87C], the self-cleavage amounted to 0.894. For the variant GGCCUGCAUGGUCCCAGCCUCCUCGCUGGCGCCGGCUGGGCAACAUUCCGAGGGGACCGUCCCCUCGGUAAUGGCUAAUGGGACCCA [G5U G76U], the self-cleavage turned out to be 0.529.

For the variant GGCCGGCAUGGUCCCAGCCUCUUCGCUGGCGCCGGCUGGGCAACAUUCCGAGGGGACCGUCCCCUCGGUAAUGGCGAAUGUGACCCA [C22U G81U], the self-cleavage was 0.04.

GGCCGGCAGGGACCCAGCCUCCUCGCUGGCGCCGGCUGGGCAACAUUCCGAGGGGACCGUCCCCUCGGUAAUGGCGAAUGGGACCCA [U9G U12A]: the self-cleavage turned out to be 1.11. On to GGCCGGCAUGGUCCCAGCCUUCUCGCUGGCGCCGGCUGGGCAACAUUCCGAGGGGACCGUCCCCUCGGUACUGGCGAAUGGGACCCA [C21U A71C], for which the self-cleavage was 0.293.

Take GGCCGGCAUGGUCCCAGCCUCCACGCUGACGCCGGCUGGGCAACAUUCCGAGGGGACCGUCCCCUCGGUAAUGGCGAAUGGGACCCA [U23A G29A]: the self-cleavage is 0.0804.

As to GGCCUGCAUGGUCCCAGCCUCCUCGGUGGCGCCGGCUGGGCAACAUUCCGAGGGGACCGUCCCCUCGGUAAUGGCGAAUGGGACCCA [G5U C26G], the self-cleavage was found to be 0.615. Next, GGCCGGCAUAGUCCCAGCCUCCUCGCUGGCGCCGCCUGGGCAACAUUCCGAGGGGACCGUCCCCUCGGUAAUGGCGAAUGGGACCCA [G10A G35C]: 0.1. As for GGCCGGCAUGGUCCCAGCCUCCUCGCUGGCGCCGGCUGGGCAACAUUCCGAGGGGACCGUCCCCUCGGUAAUAGCGAACGGGACCCA [G73A U79C], the self-cleavage is 0.186. As to GGCCGGCAUGGUCCCAGCCUCCUCGCUGGCGCCGGCUGGGCAACAUUCCGAGUGGACGGUCCCCUCGGUAAUGGCGAAUGGGACCCA [G53U C58G], the self-cleavage is 0.939. Next, UGCCGGCAUGGUCCCAGCCUCCUCGCUGGCGCCGGCUGGGCAACAUUCCGAGGGGACCGUCGCCUCGGUAAUGGCGAAUGGGACCCA [G1U C62G]: 0.391; GGCCGGCAUGGUCCCAGCCUCCUGGCUGGCGCCGGCUGGGCAACAUUCCGAGGGGACCGUCCCCUCGGUAAUGUCGAAUGGGACCCA [C24G G74U]: 0.0554. As for GGCCGGCAUGGUCCCAGCCUCCUCGCUGGCGCCGGCUGCGCAACAUUCCGAGGGGACCGCCCCCUCGGUAAUGGCGAAUGGGACCCA [G39C U60C], the self-cleavage worked out at 0.415. Under GGCCGGCAUGGUCCCAGCGUCCUCGCUGGCGCCGGCUGGGCAACAUUCCGAAGGGACCGUCCCCUCGGUAAUGGCGAAUGGGACCCA [C19G G52A] stands 0.0739. Turning to GGCCGGCAUGGUCCCAGCCUCCUCGCUGGGGCCGGCUGGGCAACAUUCCGGGGGGACCGUCCCCUCGGUAAUGGCGAAUGGGACCCA [C30G A51G], the self-cleavage worked out at 0. Take GGCCGGCAUGGUCCCAGCCUCCUCGCUGGCGCCCGCUGGGCAACAUUCCGAGGGGACCGUCCCCCCGGUAAUGGCGAAUGGGACCCA [G34C U65C]: the self-cleavage is 0.573.

For GGCCGGCAUGGUCCCGGCCUCCUCGCUGGCGCCGGCUGGGCAACAUUCCGAGGGGACCGUCCCGUCGGUAAUGGCGAAUGGGACCCA [A16G C64G], the self-cleavage came to 0.807. As for GGCCGGCAUCGUCCCAGCCUCCUCGCUGGCGCCGGCUGGGCAACAUUCCGGGGGGACCGUCCCCUCGGUAAUGGCGAAUGGGACCCA [G10C A51G], the self-cleavage was 0.72. In the case of GGCCGGCAUGGUCCCAGCCUCCUCGCUGGCGCCGGCUGGCCAACAUUCCGAGGGGUCCGUCCCCUCGGUAAUGGCGAAUGGGACCCA [G40C A56U], the self-cleavage worked out at 0.381. Consider GGCCGGCCUGGUCCCAGCCUCCUCGCUAGCGCCGGCUGGGCAACAUUCCGAGGGGACCGUCCCCUCGGUAAUGGCGAAUGGGACCCA [A8C G28A], for which the self-cleavage stood at 0.252. In the case of GGCCGGCAUGGUCCCAGCCUCCUCCCUGGCGCCGGCUGGGCAACAUUCCGACGGGACCGUCCCCUCGGUAAUGGCGAAUGGGACCCA [G25C G52C], the self-cleavage was 0.166. On to GGCCGGCAUGGUCCCAGCCUCCUCGCUGGCGCCGGCUGGGCAACAGUCCGAGGGGACCGUCCCCUCCGUAAUGGCGAAUGGGACCCA [U46G G67C], for which the self-cleavage was 0.208. As to GGCCGGCAUGGUCCCAGCCUACUCGCUGGCGCCGGCUGGGCAACAUUCCGAGGGGAGCGUCCCCUCGGUAAUGGCGAAUGGGACCCA [C21A C57G], the self-cleavage came to 0.0811.
